{"source": "patent US20230190870A1", "about": "“Method for Treating Lysosomal Storage Diseases with Histatin Peptides” (THE BOARD OF TRUSTEES OF THE UNIVERSITY OF ILLINOIS, priority 2020, published 2023)", "molecules": {"B1": {"name": "MTTLIPILSTFLFEDFSKASGFKGQRPETLHERLTLVSVYAPYLLIPFILLIFMLRSPYYKYEEKRKKK (peptide)", "chain": "MTTLIPILSTFLFEDFSKASGFKGQRPETLHERLTLVSVYAPYLLIPFILLIFMLRSPYYKYEEKRKKK"}}, "key": {"[1]": {"target": "T1, Synthetic TMEM97 (144-176) (Homo sapiens, UniProt Q5BJF2)", "T1 construct": "made in house; host or cells: chemical solid-phase synthesis (Fmoc, Wang resin)", "assay": "Surface plasmon resonance, immobilized synthetic TMEM97 (144-176)", "format": "binding", "conditions": "SPR", "protocol": "(§1) Surface Plasmon Resonance (SPR). Recombinant full-length TMEM97 (also called MAC30, from HEK293 cells) and GST-TMEM97 (108-176, recombinant GST-C terminal from wheat germ) proteins were purchased from OriGene (Rockville, Md.) and Abnova (Taipei City, Taiwan), respectively. Three peptides, TMEM97 (108-176), TMEM97 (108-143) and TMEM97 (144-176), were synthesized. All proteins and peptides were initially prepared in HBS buffer containing 10 mM HEPES, pH 7.4, 150 mM NaCl, and 0.05% surfactant P20. The CM5 sensor surface was first activated by 1-ethyl-3-(3-dimethylaminopropyl) carbodiimide hydrochloride (EDC)/N-hydroxy succinimide (NHS) mixture using a Biacore T200 or Biacore 8K instrument (GE Healthcare). […] Flow channels 1 and 3 were used as references.\n(§2) The three synthesized peptides were diluted to 50 μg/mL in 10 mM sodium acetate at pH 4.0 and immobilized to flow channels 2, 3 and 4, respectively, on another sensor chip. The unmodified surfaces on a flow channel 1 were used as a reference control. Histatin solutions with a series of increasing concentrations (0.78-25 μM at 2-fold dilution) were applied to all four channels at a 30 μL/minute flow rate at 25° C. The data were double-referenced with reference channel and zero concentration responses, and reference subtracted sensorgrams were fitted with 1 to 1 Langmuir kinetic model using a Biacore T200 evaluation software V3.0 or Insight evaluation software. The equilibrium dissociation constants ([…]) were determined from two rate constants (KD=kd/ka).\n(§3) To determine more precisely which segment of TMEM97 is necessary for binding of Hst1, multiple synthetic fragments of TMEM97 were generated (Table 6) and binding to Hst1 was tested using SPR. […] Smaller fragments of the C-terminal of TMEM97 were then constructed to represent the (predicted) luminal (108-143) and cytoplasmic (144-176) exposed segments of the C-terminus of TMEM97 based on modeling experiments previously described. […] SPR results for Hst1 were confirmed using ITC as an orthogonal analytical method.\n(§4) To determine the region(s) of Hst1 that mediate binding to TMEM97, SPR testing was performed with various Hst1 fragments and either recombinant TMEM97 (GST-tagged, wheat-germ derived, C-terminal fragment TMEM97 (108-176)) or synthesized TMEM97 (TMEM97 (108-176), TMEM97 (108-143) and TMEM97 (144-176))."}, "[2]": {"target": "T2, Synthetic TMEM97 (108-176) (Homo sapiens, UniProt Q5BJF2)", "T2 construct": "Three peptides, TMEM97 (108-176), TMEM97 (108-143) and TMEM97 (144-176), were synthesized; made in house; host or cells: chemical solid-phase synthesis (Fmoc, Wang resin)", "assay": "Surface plasmon resonance, immobilized synthetic TMEM97 (108-176)", "format": "binding", "conditions": "SPR", "protocol": "as §1, §2, §3, §4"}, "GST-TMEM97 (108-176)": {"target": "T3, GST-TMEM97 (108-176) (Homo sapiens, UniProt Q5BJF2)", "T3 construct": "GST-TMEM97 (108-176, recombinant GST-C terminal from wheat germ); purchased Abnova (Taipei City, Taiwan); host or cells: wheat germ (cell-free)", "assay": "Surface plasmon resonance, immobilized GST-TMEM97 (108-176)", "format": "binding", "conditions": "SPR", "protocol": "as §1, §2, §4"}, "[3]": {"target": "T4, Synthetic TMEM97 (108-143) (Homo sapiens, UniProt Q5BJF2)", "T4 construct": "made in house; host or cells: chemical solid-phase synthesis (Fmoc, Wang resin)", "assay": "Surface plasmon resonance, immobilized synthetic TMEM97 (108-143)", "format": "binding", "conditions": "SPR", "protocol": "as §1, §2, §3, §4"}, "[4]": {"target": "T5, full-length recombinant TMEM97 (HEK293 cells) (Homo sapiens, UniProt Q5BJF2)", "T5 construct": "Recombinant full-length TMEM97 (also called MAC30, from HEK293 cells); purchased OriGene (Rockville, Md.); host or cells: HEK293 cells", "T5 sequence (Q5BJF2 whole entry)": "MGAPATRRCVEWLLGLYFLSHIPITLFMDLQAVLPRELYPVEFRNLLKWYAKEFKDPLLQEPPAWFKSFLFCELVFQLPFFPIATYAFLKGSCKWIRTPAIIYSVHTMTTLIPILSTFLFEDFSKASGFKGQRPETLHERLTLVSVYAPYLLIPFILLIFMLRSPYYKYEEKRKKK", "assay": "Surface plasmon resonance, immobilized full-length TMEM97", "format": "binding", "conditions": "SPR", "quoted_text": "The three synthesized peptides were diluted to 50 μg/mL in 10 mM sodium acetate at pH 4.0 and immobilized to flow channels 2, 3 and 4, respectively, on another sensor chip. The unmodified surfaces on a flow channel 1 were used as a reference control. […] The data were double-referenced with reference channel and zero concentration responses, and reference subtracted sensorgrams were fitted with 1 to 1 Langmuir kinetic model using a Biacore T200 evaluation software V3.0 or Insight evaluation software. The equilibrium dissociation constants (K&) were determined from two rate constants (KD=kd/ka)."}, "[5]": {"assay": "Circular dichroism secondary structure analysis (DichroWeb)", "format": "physicochemical", "protocol": "Circular Dichroism (CD). CD analysis was performed on a Jasco 815 CD spectrometer at room temperature. TMEM97 (108-176) and Hst1 full-length peptides were prepared as 10 mM stock in 25% DMSO and water, respectively, and diluted to 0.15 mg/mL final concentration in 10 mM […] buffer. A total of 400 μL of each sample was added into a 1 mm quartz sample cell, and CD spectra were recorded from 260 nm to 190 nm wavelength. Data points were measure in 0.5 nm wavelength step at a scanning speed of 100 nm/minute. A total of five spectra were acquired for each sample and averaged. […] buffer without peptide was used as a control curve, which was subsequently subtracted from the CD spectra of peptide samples. The resulting buffer control subtracted CD intensity row data in millidegrees were submitted to DichroWeb and fitted with multiple embedded models and converted to mean residue ellipticity.\nSubsequently, the hypothesis that interaction between Hst1 and TMEM97 could affect the structure of each protein was tested. Also, the secondary structure of Hst1 and TMEM97 was tested in solution using CD measurements. It was noted that Hst1 alone is mostly disordered (over 50%) with some degree of β-strand, while TMEM97 (108-176) contains some α-helical and β-strand regions with ˜34% disordered regions. According to CD spectra comparison, there seemed to be more secondary structures formed upon Hst1 binding to TMEM97 (108-176)."}, "[6]": {"target": "T6, Synthetic TMEM97 (108-176) peptide", "T6 construct": "Synthetic peptide; also called full C-terminal synthetic TMEM97", "T6 peptide": "B1 chain", "assay": "SPR"}, "[7]": {"target": "T7, Synthetic TMEM97 (144-176) peptide", "T7 construct": "Synthetic peptide; also called (predicted) cytoplasmic segment", "T7 peptide": "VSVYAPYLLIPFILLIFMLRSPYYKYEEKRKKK", "assay": "SPR"}, "[8]": {"conditions": "CD, fraction of secondary structure"}}, "note": "Square brackets hold non-standard residues; d marks the D form. Ends that are not written are not given here. Peptide text beside a SMILES is read from it. pS = N[C@@H](COP(=O)(O)O)C(=O)O", "data": [{"molecule": "N=C(N)NCCC[C@H](NC(=O)[C@H](Cc1ccc(O)cc1)NC(=O)CNC(=O)[C@H](Cc1c[nH]cn1)NC(=O)[C@H](Cc1c[nH]cn1)NC(=O)[C@H](CCCNC(=N)N)NC(=O)[C@H](CCCCN)NC(=O)[C@H](CCC(=O)O)NC(=O)[C@H](Cc1c[nH]cn1)NC(=O)[C@H](COP(=O)(O)O)NC(=O)[C@@H](N)CC(=O)O)C(=O)N[C@@H](CCCNC(=N)N)C(=O)N[C@@H](CCCCN)C(=O)N[C@@H](Cc1ccccc1)C(=O)N[C@@H](Cc1c[nH]cn1)C(=O)N[C@@H](CCC(=O)O)C(=O)N[C@@H](CCCCN)C(=O)N[C@@H](Cc1c[nH]cn1)C(=O)N[C@@H](Cc1c[nH]cn1)C(=O)O", "note": "[Hst1(1-19)] (H-D[pS]HEKRHHGYRRKFHEKHH-OH)", "values": [{"measurement": "% Rmax", "setting": "[1]", "result": "(% Rmax = 16%)"}, {"measurement": "% Rmax", "setting": "[2]", "result": "(% Rmax = 19%)"}, {"measurement": "% Rmax", "setting": "GST-TMEM97 (108-176)", "result": "(% Rmax = 32%)"}]}, {"molecule": "N=C(N)NCCC[C@H](NC(=O)[C@H](Cc1ccc(O)cc1)NC(=O)CNC(=O)[C@H](Cc1c[nH]cn1)NC(=O)[C@H](Cc1c[nH]cn1)NC(=O)[C@H](CCCNC(=N)N)NC(=O)[C@H](CCCCN)NC(=O)[C@H](CCC(=O)O)NC(=O)[C@H](Cc1c[nH]cn1)NC(=O)[C@H](COP(=O)(O)O)NC(=O)[C@@H](N)CC(=O)O)C(=O)N[C@@H](CCCNC(=N)N)C(=O)N[C@@H](CCCCN)C(=O)N[C@@H](Cc1ccccc1)C(=O)N[C@@H](Cc1c[nH]cn1)C(=O)N[C@@H](CCC(=O)O)C(=O)N[C@@H](CCCCN)C(=O)N[C@@H](Cc1c[nH]cn1)C(=O)N[C@@H](Cc1c[nH]cn1)C(=O)N[C@@H](CO)C(=O)N[C@@H](Cc1c[nH]cn1)C(=O)N[C@@H](CCCNC(=N)N)C(=O)N[C@@H](CCC(=O)O)C(=O)N[C@@H](Cc1ccccc1)C(=O)N1CCC[C@H]1C(=O)N[C@@H](Cc1ccccc1)C(=O)O", "note": "[Hst1(1-26)] (H-D[pS]HEKRHHGYRRKFHEKHHSHREFPF-OH)", "values": [{"measurement": "% Rmax", "setting": "[1]", "result": "(% Rmax = 4%)"}, {"measurement": "% Rmax", "setting": "[2]", "result": "(% Rmax = 8%)"}, {"measurement": "KD / binding", "setting": "[3]", "result": "No binding"}, {"measurement": "% Rmax", "setting": "GST-TMEM97 (108-176)", "result": "(% Rmax = 24%)"}]}, {"molecule": "Hst1(1-14): Hst1 fragment, residues 1-14 (DSHEKRHHGYRRKF)", "values": [{"measurement": "KD", "setting": "[1]", "result": "No binding"}, {"measurement": "KD", "setting": "[2]", "result": "No binding"}, {"measurement": "KD / binding", "setting": "[3]", "result": "No binding"}]}, {"molecule": "Hst1(20-32): Hst1 fragment, residues 20-32 (SHREFPFYGDYGS)", "values": [{"measurement": "KD", "setting": "[1]", "result": "No binding"}]}, {"molecule": "HYHKFHRYYDPGSNLYKEHNHGFHHGYKDEFRREpSRDS (HYHKFHRYYDPGSNLYKEHNHGFHHGYKDEFRRE[pS]RDS) [reference compound]", "values": [{"measurement": "% Rmax", "setting": "[4]", "result": 8, "unit": "%"}, {"measurement": "KD", "setting": "[4]; 25° C., 1 to 1 Langmuir kinetic model", "result": "No binding"}, {"measurement": "% Rmax", "setting": "GST-TMEM97 (108-176)", "result": 5, "unit": "%"}, {"measurement": "KD", "setting": "GST-TMEM97 (108-176)", "result": "No binding"}]}, {"molecule": "Hst1(15-38): Hst1 fragment, residues 15-38 (HEKHHSHREFPFYGDYGSNYLYDN)", "values": [{"measurement": "KD", "setting": "[1]", "result": "No binding"}, {"measurement": "KD", "setting": "[2]", "result": "No binding"}, {"measurement": "KD", "setting": "GST-TMEM97 (108-176)", "result": "No binding"}]}, {"molecule": "B1", "values": [{"measurement": "disordered regions", "setting": "[5]; CD in solution", "result": "~34", "unit": "%"}, {"measurement": "Helix", "setting": "[5]; [8]", "result": 0.14}, {"measurement": "Strand", "setting": "[5]; [8]", "result": 0.31}, {"measurement": "Turns", "setting": "[5]; [8]", "result": 0.21}, {"measurement": "Unordered", "setting": "[5]; [8]", "result": 0.34}]}, {"molecule": "HEKHHSHREFPFYGDYGSNYLYDN (Fragment of Hst1)", "note": "[Hst1(15-38)]", "values": [{"measurement": "binding result", "setting": "[6]", "result": "no binding"}, {"measurement": "binding result", "setting": "[7]", "result": "no binding"}]}, {"molecule": "SHREFPFYGDYGS (Fragment of Hst1)", "note": "[Hst1(20-32)]", "values": [{"measurement": "binding result", "setting": "[7]", "result": "no binding"}]}]}
